Read-outs that look alike come from different tables or passages of the source.

Assay [1] has as its target T1, human IL2RA expressed on CHO-S cells (CHO-S-hIL2RA cells) (human, UniProt P01589 22-272).
T1 sequence: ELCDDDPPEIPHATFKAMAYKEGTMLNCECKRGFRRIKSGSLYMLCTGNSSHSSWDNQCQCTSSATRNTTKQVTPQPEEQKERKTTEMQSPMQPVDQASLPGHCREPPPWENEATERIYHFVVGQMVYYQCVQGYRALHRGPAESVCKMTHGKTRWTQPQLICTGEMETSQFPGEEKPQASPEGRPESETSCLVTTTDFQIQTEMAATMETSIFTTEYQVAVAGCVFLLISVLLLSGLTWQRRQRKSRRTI
In words: flow cytometry blocking assay on CHO-S-hIL2RA cells; blocked ligand: biotinylated human IL-2 at 2.5 µg/mL, detected with APC streptavidin.
Experimental: (§1) CHO-S-hIL2RA cells were seeded in a 96-well plate (cell density 2×10⁵ cells/well) and incubated at 37° C. overnight. […] The above 96-well plate was incubated at 4° C. for 20 minutes.
(§2) The mean fluorescence intensity (MFI) was determined. A fitting curve was obtained using Log(antibody concentration (μg/mL)) or antibody concentration (μg/mL) as the X-axis and Log(mean MFI) or MFI as the Y-axis.

In assay [2] the target is T1, human IL2RA expressed on CHO-S cells …. The description is as above. The source holds these as a separate data set.
Experimental: as §1, §2
The target of assay [3] is T2, monkey (Macaca fascicularis) IL2RA expressed on CHO-S cells (CHO-S-fasIL2RA cells) (monkey (Macaca fascicularis), UniProt Q5MNY4 22-272).
T2 chain: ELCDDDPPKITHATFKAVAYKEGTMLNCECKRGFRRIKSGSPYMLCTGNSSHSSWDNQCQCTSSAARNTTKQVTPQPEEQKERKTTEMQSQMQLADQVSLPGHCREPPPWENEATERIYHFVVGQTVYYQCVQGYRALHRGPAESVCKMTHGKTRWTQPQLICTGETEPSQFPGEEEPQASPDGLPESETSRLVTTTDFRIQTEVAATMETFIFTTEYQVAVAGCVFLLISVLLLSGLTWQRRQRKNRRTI
The experiment in a line: flow cytometry on CHO-S cells expressing the target, anti-human IgG Fc secondary.
Experimental: (§3) CHO-S-hIL2RA cells or CHO-S-fasIL2RA cells were plated in a 96-well plate at a density of 2×10⁵ cells/well. Serially diluted purified anti-IL2RA antibodies (maximum concentration: 9 μg/mL, 2-fold dilutions, 11 gradients) were added to each well and were incubated at 4° C. for 30 minutes.
(§4) The cells were collected, and the mean fluorescence intensity (MFI) was determined. A fitting curve was obtained using Log(antibody concentration (μg/mL)) as the X-axis and mean MFI as the Y-axis.

The target of assay [4] is T1, human IL2RA expressed on CHO-S cells …. The description is as above.
Experimental: as §3, §4
The target in assay [5] is T3, His-tagged recombinant monkey (Cynomolgus monkey, Macaca fascicularis) IL2RA protein (cynoIL2RA-his, Sino … (Cynomolgus monkey (Macaca fascicularis), UniProt Q5MNY4 22-213 (rhesus entry))).
T3 construct: Bought protein; the soluble protein is most likely only an extracellular part of it; not shown: His tag
T3 chain: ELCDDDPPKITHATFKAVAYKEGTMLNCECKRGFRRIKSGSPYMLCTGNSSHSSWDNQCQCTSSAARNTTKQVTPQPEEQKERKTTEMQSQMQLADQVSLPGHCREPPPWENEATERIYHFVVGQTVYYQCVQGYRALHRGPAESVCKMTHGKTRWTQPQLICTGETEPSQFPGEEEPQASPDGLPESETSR
In words: SPR (Biacore 8K), antibody captured on Protein A chip, His-tagged antigen as analyte, 1:1 fit.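 Further: antibodies captured at about 150 RU, antigen injected as a titration series, dissociation phase recorded over 400 s.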

The target of assay [6] is T4, His-tagged human IL2RA protein (hIL2RA-his, ACROBiosystems Inc., Cat #: ILA-H52H9) (human, UniProt P01589 22-213, limits assumed).
T4 construct: Bought protein; the soluble protein is most likely only an extracellular part of it; not shown: His tag
T4 sequence: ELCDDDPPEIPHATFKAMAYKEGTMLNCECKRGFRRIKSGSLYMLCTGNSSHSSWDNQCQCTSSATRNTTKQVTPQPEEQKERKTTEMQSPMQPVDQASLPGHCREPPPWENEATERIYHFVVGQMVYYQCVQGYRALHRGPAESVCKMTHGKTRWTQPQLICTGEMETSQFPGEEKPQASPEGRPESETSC
The assay is described as above.

Assay [7] deals with T3, His-tagged recombinant monkey …. The experiment in a line: SPR (Biacore 8K), antibody captured on Protein A chip, His-tagged antigen as analyte; "-" means no binding.
Experimental: Purified anti-IL2RA antibodies were diluted to 2 g/mL and then injected into the Biacore™ 8K biosensor at 10 L/min for about 50 seconds to achieve a desired protein density (e.g., about 150 response units (RU)). […] Dissociation was monitored for 400 seconds. The chip was regenerated after the last injection of each titration with glycine (pH 2.0, 30 L/min for 30 seconds).

B1: Daclizumab analog (antibody, V domains shown)
VH: QVQLVQSGAEVKKPGSSVKVSCKASGYTFTSYRMHWVRQAPGQGLEWIGYINPSTGYTEYNQKFKDKATITADESTNTAYMELSSLRSEDTAVYVCARGGGVFDYWGQGTLVTVSS
VL: DIQMTQSPSTLSASVGDRVTITCSASSSISYMHWYQQKPGKAPKLLIYTTSNLASGVPARFSGSGSGTEFTLTISSLQPDDFATYYCHQRSTYPLTFGQGTKVEVK
notes: Daclizumab is described as a humanized monoclonal antibody
B1: the “IC50 (read off the curve)” value was approximately 0.6 µg/mL in assay [1] and approximately 4 µg/mL in assay [2].

B2: anti-IL2RA antibody 11D2 (antibody, human IgG1, V domains shown)
VH: QVQLVQSGGGVVQPGRSLRLSCAASGFTFTNYAIHWVRQAPGKGLEWVAVIWSDGDNKYYADSVKGRFTISRDNSKNTLYLQMNSLRAEDTAVYYCARTPWYCTSTNCYTGYYYYGMDVWGQGTTVTVSS
VL: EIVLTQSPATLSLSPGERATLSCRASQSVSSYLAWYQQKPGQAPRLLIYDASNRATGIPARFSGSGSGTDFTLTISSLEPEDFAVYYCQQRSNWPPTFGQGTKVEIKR
For the molecule B2, the 50% effective concentration (EC50) was found to be 0.039 µg/mL in assay [3] and 0.052 µg/mL in assay [4]. In addition, the dissociation constant Kd in assay [5] worked out at 2.53 nM; in assay [6], 1.27 nM. For the same molecule, the off-rate (koff) in assay [5] is 0.000901 s⁻¹; in assay [6] it was 0.000235 s⁻¹. Moreover, the kon was 356000 M⁻¹ s⁻¹ in assay [5] and 185000 M⁻¹ s⁻¹ in assay [6].

B3: anti-IL2RA antibody 7B5 (antibody, V domains shown)
VH: EVQLQQWGAGLLKPSETLSLTCAVYGGSFSGYYWNWIRQPPGKGLEWIGESDHSGSTHFNPSLKSRVTISLDTSKNQFSLKLNSVTAADTAVYFCARAPDYGDFDHWGQGILVTVSS
VL: DIQMTQSPDSLAVSLGERATINCRSSQSVLHSSTNKRYLAWYQQKPRQPPKLLIYWTSTRESGVPDRFSGSGSGTDFTLTISSLQAEDVAVYFCQQYYSTPYTFGQGTKLEIK
Molecule B3 registered a concentration giving a half-maximal response (EC50) in assay [3] of 0.435 µg/mL. The same molecule returned an EC50 in assay [4] of 0.411 µg/mL. Also, in assay [5], the Kd worked out at 24.6 nM, the koff was determined as 0.0258 s⁻¹ and the kon stood at 1.05e+06 M⁻¹ s⁻¹. In assay [6], binding was characterised by a dissociation constant (Kd) of 6.35 nM, the koff came to 0.0143 s⁻¹ and the kon was 2.25e+06 M⁻¹ s⁻¹.

B4: anti-IL2RA antibody 13F9 (antibody, human IgG1, V domains shown)
VH: QVQLVQSGAEVKRPGASVKVSCKASGYTFTTYAIHWVRQAPGQRLEWMGWINADNGYTKYSQNFQGRVTITRDTSASTAYMDLSTLRSEDTALYYCARTPRYCTSTSCSTGYYYYGMDVWGQGTTVTVSS
VL: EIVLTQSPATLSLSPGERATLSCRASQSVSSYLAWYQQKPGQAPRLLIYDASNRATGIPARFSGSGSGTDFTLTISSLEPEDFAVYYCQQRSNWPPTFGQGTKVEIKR
For the molecule B4, the concentration for a half-maximal effect (EC50) in assay [3] came out at 0.275 µg/mL. The molecule further yielded an EC50 in assay [4] of 0.326 µg/mL. Also, in assay [5], the equilibrium dissociation constant (Kd) was 11.8 nM, the koff came to 0.000447 s⁻¹ and the kon turned out to be 37800 M⁻¹ s⁻¹. Also, in assay [6], the dissociation constant Kd was found to be 0.655 nM, the koff was 2.11e-05 s⁻¹ and the kon was 32300 M⁻¹ s⁻¹.

B5: anti-IL2RA antibody 11C3 (antibody, human IgG1, V domains shown)
VH: QVQLVQSGAEVKKPGASVKVSCKASGYTFNSYYIHWVRQAPGQGLEWLGIINPTGGRTIYAQKFQGRVTMTRDTSTTTVDMELSSLRSEDTAVYYCARVPGYCKDTSCQDFYYYYGMDVWGQGSTVTVSS
VL: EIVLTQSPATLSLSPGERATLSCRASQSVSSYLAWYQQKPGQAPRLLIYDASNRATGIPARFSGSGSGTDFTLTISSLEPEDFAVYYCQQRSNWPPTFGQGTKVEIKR
B5 had an EC50 in assay [3] of 0.111 µg/mL. The same molecule showed an EC50 in assay [4] of 0.099 µg/mL. In addition, in assay [5], the Kd was determined as 0.528 nM, the koff came to 0.000166 s⁻¹ and the kon turned out to be 314000 M⁻¹ s⁻¹. Moreover, in assay [6], binding was characterised by a dissociation constant (Kd) of 0.266 nM, the koff amounted to 9.42e-05 s⁻¹ and the kon was 354000 M⁻¹ s⁻¹.

B6: anti-IL2RA antibody 5D9 (antibody, V domains shown)
VH: EVQLVESGGGLVQPGGSLRLSCAASGFTVSSNYMSWVRQTPGKGLELVSFIYSGGITSYADSVRGRFTISRDNSKNTLYLQMNSLRAEDTAVYYCARDDYSNYFDYWGQGTLVTVSS
VL: DIQMTQSPSSVSASVGDRVTITCRASQGISNWLAWYQQKPGKAPKLLIFAASSLQSGVPSRFSGSGSGTDFTLTISSLQPEDFATYYCQQAKSFPITFGQGTRLEIK
notes: Variable regions were cloned onto a human IgG constant region; also called 5D9-IgG1
Take B6: the midpoint of the response in assay [3], the EC50, lay at 0.466 µg/mL. The molecule further showed a half-maximal effective concentration (EC50) in assay [4] of 0.47 µg/mL. Further, in assay [5], the Kd amounted to 271 nM, the off-rate (koff) was found to be 0.0193 s⁻¹ and the kon stood at 71400 M⁻¹ s⁻¹. In assay [6], the Kd was 5.14 nM, the koff was found to be 0.00043 s⁻¹ and the kon came out at 83800 M⁻¹ s⁻¹.

B7: anti-IL2RA antibody 11C12 (antibody, human IgG1, V domains shown)
VH: QVQLVQSGGGLVQPGGSLRLSCSASGLTFSSYGMHWVRQAPGKGLDYVSGITNNGGRTEYADSVKGRFTISRDNSKNTLYLQMSSLRTEDTAVYYCVKEDWNGQYYYYAMDVWGQGTTVTVSS
VL: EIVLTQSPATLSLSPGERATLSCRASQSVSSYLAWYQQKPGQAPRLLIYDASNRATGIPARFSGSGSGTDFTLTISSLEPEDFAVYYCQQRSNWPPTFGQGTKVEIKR
notes: also called 1IC12
Consider B7, for which the concentration for a half-maximal effect (EC50) in assay [3] was 0.091 µg/mL. This molecule showed an EC50 in assay [4] of 0.083 µg/mL. Besides, in assay [5], the Kd was determined as 118 nM, the koff was 0.0343 s⁻¹ and the kon turned out to be 291000 M⁻¹ s⁻¹. Besides, in assay [6], the Kd turned out to be 8.9 nM, the koff turned out to be 0.00268 s⁻¹ and the on-rate constant (kon) was determined as 301000 M⁻¹ s⁻¹.

B8: RG6292 analog (antibody, V domains shown)
VH: QVQLVQSGAEVKKPGASVKVSCKASGYTFTSYYMHWVRQAPGQGLEWMGIINPSGGSTSYAQKFQGRVTMTRDTSTSTVYMELSSLRSEDTAVYYCARGGAEYIPAEYFQHWGQGTLVTVSS
VL: EIVMTQSPATLSLSPGERATLSCRASQSVSSYLAWYQQKPGQAPRLLIYDASNRATGIPARFSGSGSGTDFTLTISSLEPEDFAVYYCQQRPFLPTFGGGTKVEIK
notes: RG6292 is described as a human IgG1 monoclonal antibody
B8: in assay [6], the Kd turned out to be 43.8 nM, the off-rate constant (koff) came out at 0.00203 s⁻¹ and the on-rate (kon) turned out to be 46300 M⁻¹ s⁻¹. In addition, the binding result in assay [7] is recorded as “no binding (tested: up to 200 nM antigen)”.

B9: anti-IL2RA antibody 14C2 (antibody, human IgG1, V domains shown)
VH: QVQLVQSGGGVVQPGRSLRLSCAASGFTFSTYGMHWVRQAPGKGLEWVAVISYDGSDKIYADSVKGRFTISRDNSKNTLFLQMNSLRAEDTAVYYCATGPMENYYYYNMDVWGLGTTVTVSS
VL: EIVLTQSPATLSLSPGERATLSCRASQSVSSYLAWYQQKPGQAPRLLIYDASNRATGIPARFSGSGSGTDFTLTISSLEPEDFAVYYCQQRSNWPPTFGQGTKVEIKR
The molecule B9 gave an EC50 in assay [3] of 0.088 µg/mL. Moreover, the half-maximal effective concentration (EC50) in assay [4] stood at 0.093 µg/mL. In assay [5], the Kd amounted to 53.1 nM, the dissociation rate constant (koff) was 0.0116 s⁻¹ and the kon was determined as 218000 M⁻¹ s⁻¹. Also, in assay [6], the dissociation constant (Kd) amounted to 3.72 nM, the koff was 0.000962 s⁻¹ and the kon was 258000 M⁻¹ s⁻¹.
